# The nanobody polyreactivity screen of Harvey et al. (2022)
# Experiment: yeast display, Sf9 membrane polyspecificity reagent, FACS + sequencing; frameworks hold sequencing errors
# In short: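 Polyreactivity labels are assigned by the sorting gate from which each nanobody was recovered. The gates were low and high (top ~1%), set on anti-HA fluorescence for expression and streptavidin fluorescence for reagent binding. Before sorting, galactose-induced (36–48 hours) yeast display cells were stained for 1 hour at 4 °C with 10% biotinylated, detergent-solubilized Sf9 membrane reagent.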
row,Sequence,polyreactivity (PSR sort gate)
1,QVQLVESGGGLVQAGGSLRLSCAASGRIFWYYAMGWYRQAPGKERELVAAISRSGGSTYYADSVKGRFTISRDNAKNTVYLQMNSLKPEDTAVYYCAAGARAFDDDSWGQGTQVTVSS,low polyreactivity
2,QVQLVESGGGLVQAGGSLRLSCAASGRIFWYYAMGWYRQAPGKERELVAAITKSGGSTYYADSVKGRFTISRDYAKNTVYLQMNSLKPEDTAVYYCAAPTWTRSSFDYWGQGTQVTVSS,high polyreactivity
3,QVQLVESGGGLVQAGGSLRLSCAASGRIFWYYAMGWYRQAPGKERELVATISSGGRTNYADSVKGRCTISRDNAKNTVYLQMNSLKPEDTAVYYCAAKHPISTLYDYWGQGTQVTVSS,high polyreactivity
4,QVQLVESGGGLVQAGGSLRLSCAASGRIFWYYAMGWYRQAPGKERELVATISYGGGNTYYADSVKGRFTISRDNAKNTVYLQMNSLKPEDTAVYYCARVPYAYLPYKPFQQYSYDYWGQGTQVTVSS,high polyreactivity
5,QVQLVESGGGLVQAGGSLRLSCAASGRIFWYYAMVWYRQAPGKERELVATISSRSGSTYYADSVKGRFTISRDNAKNTVYLQMNSLKPEDTAVYYCAAGTPYYLGYRHNYWGQGTQVTVSS,high polyreactivity
6,QVQLVESGGGLVQAGGSLRLSCAASGRIFWYYTMGWYRQAPGKERELVASINSDTGTYYADSVKGRFTISRDNAKNTVYLQMNSLKPEDTAVYYCNKDDYALSNTWRPEYDYWGQGTQVTVSS,low polyreactivity
7,QVQLVESGGGLVQAGGSLRLSCAASGRIFYANAMGWYRQAPGKERELVAAISSGGSTYYADSVKGRFTISRDNAKNTVYLQMNSLKPEDTAVYYCATDYQSTSVWGGHFVINPYDYWGQGTQVTVSS,low polyreactivity
8,QVQLVESGGGLVQAGGSLRLSCAASGRIFYAYAKGWYRPAPGKEREVVAAITRGGSTYYADSVKGRFTISRDNAKNTVYLQLNCLKREDTAVYSWAAQGYAPPLGESLGYWGEGTQVTVSS,low polyreactivity
9,QVQLVESGGGLVQAGGSLRLSCAASGRIFYAYAMGGYRQAPGKERELVASISGGGSTDYADSVKGRFTISRDNAMNTVYLQMNSLKPEDTAVYDCAAKRISYYSYNFDYWGEGTQVTVSS,high polyreactivity
10,QVQLVESGGGLVQAGGSLRLSCAASGRIFYAYAMGWYRQAPGKERELVAAISSSGRTYYADSVKGRFTISRDNAKNTVYLQMNSLKPEDTAVYYCAAPGSPYGYWGQGTQVTVSS,high polyreactivity
11,QVQLVESGGGLVQAGGSLRLSCAASGRIFYAYAMGWYRQAPGKERELVAAITARGGSTYYADSVKGRFTISRDNAKTTVYLQMNSLKPEDTAVYYCAKDTLLETGYEYWGQGTQVTVSS,high polyreactivity
12,QVQLVESGGGLVQAGGSLRLSCAASGRIFYAYTMGRSRQAPGKERELVAAISGSGSTYYADSVKGRFTISRDNAKNTVYLQMNSLKPEDTAVYYCAADVTGGRKYDYWGQGTQVTVSS,low polyreactivity
13,QVQLVESGGGLVQAGGSLRLSCAASGRIFYDNTMGWYRQAPGKERELFAAITWRVGNTNYADSVKGRFTISRDNAKNTVYLQMNSLNPEDTAVYYCAVRLLADDGYPAVVGYDYWGQGTQVTVSS,low polyreactivity
14,QVQLVESGGGLVQAGGSLRLSCAASGRIFYFNAMGWYRQAPGKERELVADISTGGRTNYADSVKGRFTISRDNAKNTVYLQMNSLNPEDTAVYYCNAEPYTSSGGYRGYDFDYWGQGTQVTVSS,low polyreactivity
15,QVQLVESGGGLVQAGGSLRLSCAASGRIFYFNTMGWYRQAHGKEIELVAAITRNGGSTYYADSVKWRFTISRDNAKNTVYFQMNSLKPEDTAVYYCNARYRAAKRGKAWYRYDYWGQGTQVTVSS,high polyreactivity
16,QVQLVESGGGLVQAGGSLRLSCAASGRIFYFNTMGWYRQAPGKERELVAAITGSGSSTYYADSVKGRFTISRDNAKNTVYLQMNSLKPEDTAVYYCAAYGFSRNGYTYGHDDWGQGTQVTVSS,low polyreactivity
17,QVQLVESGGGLVQAGGSLRLSCAASGRIFYFYAMGWYRQAPGKERELVAAITSGGGTYYADSVKGRFTISRDNAKNTVYLQMNSLKPEDTAVYYCDVRVYRTSWQGYYYWGQGTQVTVSS,high polyreactivity
18,QVQLVESGGGLVQAGGSLRLSCAASGRIFYGNAMGWYRQAPGKERELVAAISKRGGSTHYADSVKGRFTISRDNAKNPVYLQMNSLKPEDTAVDYCATDSYYVGAVHYYYWGQGTQVTVSS,high polyreactivity
19,QVQLVESGGGLVQAGGSLRLSCAASGRIFYGNAMGWYRQAPGKERELVATISSSGGRTTYADSVKGRFTISRDNAKNTVYLQMNSLKPEDTAVYYCADQGYWTGYDYWGQGTQVTVSS,high polyreactivity
20,QVQLVESGGGLVQAGGSLRLSCAASGRIFYGNAMGWYRQPPGKERELFAGITRSSGTSTYYADSVKVRFTISRDNAKYTVYLQMNSMNPEDTAVYYCAAPPDSYYYYKVPVVPYDYWGQGTQVTVSS,low polyreactivity
21,QVQLVESGGGLVQAGGSLRLSCAASGRIFYGNAMGWYRQSPGKERELVASITSSGSTKYADSVKGRFTISRDNAKNTVYLQMNSLKPEDTAVYYCAASSTKRYDTYAGYDYWGQGTQVTVSS,low polyreactivity
22,QVQLVESGGGLVQAGGSLRLSCAASGRIFYGNTLGWYRQAPGKERELVAAISSGGSTNYADSVKGRFTISRDNAKNTVYLQMNSLKPEDTAVYYCAAAGRPGGYVQRDSWGQGTQVTVSS,high polyreactivity

row,Sequence,polyreactivity (PSR sort gate)
1,QVQLVESGGGLVQAGGSLRLSCAASGRIFYGNTMGWYRPAPGKERELVAAITGSGTSTYYADSVKGRFTISRDNAKNTVYLQMNSLKPEDTAVYYCNADRPVYVDYINGGYGYWGQGTQVTVSS,low polyreactivity
2,QVQLVESGGGLVQAGGSLRLSCAASGRIFYGNTMGWYRQAPGKERELVAAITWRGGSTYYADSVKGRFTISRDNAKITVYLQMNSLKPEDTAVYYCAAVSYRGRGYWGQGTQVTVSS,high polyreactivity
3,QVQLVESGGGLVQAGGSLRLSCAASGRIFYGYAMGWYRKAPVKEREFVAAITVSAGSTYYADSVKGRFTISRDNAKNTVYLLMNSLKPEDTAVYYCASKRYVYPSYRFDYWGQGTQVSVSS,low polyreactivity
4,QVQLVESGGGLVQAGGSLRLSCAASGRIFYGYAMGWYRQAPGKERELVAAISWRGDSTYYADSVKGRFTISRDNAKNTVYLQMNSLKPEDTAVYYCAARRPGYYYPSKFDYWGQGTQVTVSS,high polyreactivity
5,QVQLVESGGGLVQAGGSLRLSCAASGRIFYGYAMGWYRQAPGKERELVAAITWIDGSTYYADSVKGRFTISRDNAKNTVYLQMNSLKPEDTAVYFCNKTWYGDSGTRTYWGQVTQVTVSS,low polyreactivity
6,QVQLVESGGGLVQAGGSLRLSCAASGRIFYGYAMGWYRQAPGKERELVAAITYIGGPYYADSVKGRFTISRDNAKNTVYFQMNSQKPEDTAVYYCATEPFYTYGYYTYPYWYDYWGQGTQVTVSS,low polyreactivity
7,QVQLVESGGGLVQAGGSLRLSCAASGRIFYGYTMGWYRQAPGKERELVASITIRGSRTYYADSVKGRFTISRDNAKNTVYLQMNSLKPEDTAVYSCAADFVPARTVHRYDYWGQGTQVTVSS,low polyreactivity
8,QVQLVESGGGLVQAGGSLRLSCAASGRIFYHNAMGWYRQAPGKERELVAAIRWSGGSTYYADSEKGRFTISRDNAKNTVYLLMKSLKPEDTAVYYWATDVPIREIDEFGYWGQGTQVTVSS,low polyreactivity
9,QVQLVESGGGLVQAGGSLRLSCAASGRIFYHYAMGWYRQAPGKERELVAAITSSGAGTYYADSVKGRFTISRDNAKNTVYLPMNSLKPEDTAVYYCAARRYAWLHSYDMYYWGHGTQVTVSS,high polyreactivity
10,QVQLVESGGGLVQAGGSLRLSCAASGRIFYHYAMGWYRQAPGKERELVATINSSGTSTYYADSVKGRFTISRDNAKNTVYLQMNSLKPEDTALYYCAASTYNKMYYWGQGTHVTVSS,high polyreactivity
11,QVQLVESGGGLVQAGGSLRLSCAASGRIFYINAMGWYRQAPGKEWELVAGITRSGGSTYYADSVKGRFTISRDNAKNTVYLQMNSLKPEDTAVYYCNAGRYARQHSRYDYWGQGTQVTVSS,high polyreactivity
12,QVQLVESGGGLVQAGGSLRLSCAASGRIFYIYAKGWYRPAPGKERELVAASTNGGSTNYAHSVKGRFTISRDNAKNTVYLQMNSLKPEDTEVYYCATDYVGYSFGMYYWGEGTQVTVSS,low polyreactivity
13,QVQLVESGGGLVQAGGSLRLSCAASGRIFYLYAMGWYRQAPGKERELVASINSGDSTHYADSVKGRFTISRDNAKNTVYLQMNSLKPEDTAVYYCATRRYTRSRWYDYWGQGTQVTVSS,low polyreactivity
14,QVQLVESGGGLVQAGGSLRLSCAASGRIFYNYAMGWSRQAPGKERELVAAISGSGGSTYYADSVKGRFTISRDNAKNTVYLQMNSLKPEDTAVYYCSTSGPQYYSRNFDYWGQGTQVTVSS,low polyreactivity
15,QVQLVESGGGLVQAGGSLRLSCAASGRIFYPNAMGWYRQAPGQERELVAAISLSAGSTYYADSVKGRFTISRDNAKNTVSLQMNSLKPEDTAVYYCATQGNSPRGTRRYGYWGQGTQVTVSS,high polyreactivity
16,QVQLVESGGGLVQAGGSLRLSCAASGRIFYPYAMGWYRQAPGIERELVAAIDKGGGSTYYADSVKGRFSISRDNAKNTVYVQMNSLKPEDTAVYYCAAGWEYPYDYWGQGTQVTVSS,low polyreactivity
17,QVQLVESGGGLVQAGGSLRLSCAASGRIFYPYAMGWYRQAPGKERELVAAINWSGDRTYYADSVKGRFTISRDNAKNTVYLQMNSLKPEDTAVYYCAAVYFTRSSGRRYDYWGQGTQVTVSS,high polyreactivity
18,QVQLVESGGGLVQAGGSLRLSCAASGRIFYPYAMGWYRQAPGKERELVAAIRWGGGSTYADSVKGRFTISRDNAKNTVYLQMNSLKPEDTAVYYCAAKSYPYYGYPGAYDYWGQGTQVTVSS,low polyreactivity
19,QVQLVESGGGLVQAGGSLRLSCAASGRIFYPYAMGWYRQAPGKERELVAAITSGGSTYYADSVKGRFTISRDNAKNTVYFQMNSLKPEDTAVYYCAADVVDLYLLDYWGQGTQVTVSS,low polyreactivity
20,QVQLVESGGGLVQAGGSLRLSCAASGRIFYPYAMGWYRQAPGKERELVARITWTTTSTYYADSVKGRFTISRDNAKNTVYLQMNSLKPDDTAVYYCAADGRVRTWGNLRDYWGQGTQVTVSS,high polyreactivity
21,QVQLVESGGGLVQAGGSLRLSCAASGRIFYPYAMGWYRQAPGTERELVAAISYSGGSTFYADSVKGRFTISRDNAKNTVYFQMNSLKPEDTAVYFCNKVWFARYWYRDFDYWGQGTQVTVSS,high polyreactivity
